Here are results for 5 molecules from publication PMC8865267 (mAbs, 2022).

Where two headings read alike, the source gives them in different places.

Assay [1] concerns the target human CTLA-4 with C-terminal Myc, poly-histidine and BirA biotinylation tag (Homo sapiens (Human).) (UniProt P16410). The assay can be described thus: SPR. On the technique in general: In SPR one partner is held on a chip, and binding of the other changes the refractive index at the surface.
Assay [2] addresses CTLA-4 of activated primary human CD4+CD25+ T cells (human (endogenous in primary CD4+CD25+ …, UniProt P16410)). Briefly: flow cytometry on cells. For orientation: In flow cytometry, cells or beads pass a laser one at a time.
Assay [3] addresses CTLA-4 on BW cells expressing ~2,000 CTLA-4 receptor copies (Homo sapiens (Human)., UniProt P16410). The assay can be described thus: flow cytometry on cells.
For assay [4], the target named is T1, human CTLA-4 with C-terminal poly-histidine tag (crystallography construct) (human, UniProt P16410, glycans trimmed with EndoH). Briefly: crystal structure.
In assay [5] the target is T1, human CTLA-4 with C-terminal …. Briefly: crystal structure. This is another data set of the same source.

Sequence of CTLA-4 of activated primary human CD4+CD25+ T cells (human (P16410 36-223): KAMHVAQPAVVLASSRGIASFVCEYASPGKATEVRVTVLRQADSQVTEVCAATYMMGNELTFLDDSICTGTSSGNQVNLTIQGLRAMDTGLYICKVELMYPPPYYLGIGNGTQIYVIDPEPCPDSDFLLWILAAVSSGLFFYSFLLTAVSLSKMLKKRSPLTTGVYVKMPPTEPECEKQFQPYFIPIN
Sequence of CTLA-4 on BW cells expressing ~2,000 CTLA-4 receptor copies (P16410 36-223): as above
T1 sequence (P16410 36-161): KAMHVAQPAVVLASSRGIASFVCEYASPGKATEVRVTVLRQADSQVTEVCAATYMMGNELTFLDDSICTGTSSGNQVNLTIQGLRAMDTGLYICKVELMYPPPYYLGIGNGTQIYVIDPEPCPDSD

ipilimumab Fab registered a dissociation constant Kd in assay [1] of 40 nM.

B1: Ipi.105 IgG1, non-fucosylated (antibody, V domains shown)
VH: QVQLVESGGGVVQPGRSLRLSCAASGFTFSHYTMHWVRQAPGKGLEWVTFISYDGHNKYYADSVKGRFTISRDNSKNTLYLQMNSLRAEDTAIYYCARTGWLGPFDYWGQGTLVTVSS
VL: EIVLTQSPGTLSLSPGERATLSCRASQEVGESELAWYQQKPGQAPRLLIYGAFSRATGIPDRFSGSGSGTDFTLTISRLEPEDFAVYYCQQYGSSPWTFGQGTKVEIK
Regarding B1, the binding result in assay [2] and in assay [3] was “binds” in each case.

B2: Ipi.106 Fab (Fab, V domains shown)
VH: QVQLVESGGGVVQPGRSLRLSCAASGFTFSHYTMHWVRQAPGKGLEWVTFISYDGHNKYYADSVKGRFTISRDNSKNTLYLQMNSLRAEDTAIYYCARHGWLGPFDYWGQGTLVTVSS
VL: EIVLTQSPGTLSLSPGERATLSCRASQEVGESELAWYQQKPGQAPRLLIYGAFSRATGIPDRFSGSGSGTDFTLTISRLEPEDFAVYYCQQYGSSPWTFGQGTKVEIK
With B2, in assay [4], the binding result was “binds”.

B3: Ipi.106 IgG1, non-fucosylated (antibody, V domains shown)
VH: QVQLVESGGGVVQPGRSLRLSCAASGFTFSHYTMHWVRQAPGKGLEWVTFISYDGHNKYYADSVKGRFTISRDNSKNTLYLQMNSLRAEDTAIYYCARHGWLGPFDYWGQGTLVTVSS
VL: EIVLTQSPGTLSLSPGERATLSCRASQEVGESELAWYQQKPGQAPRLLIYGAFSRATGIPDRFSGSGSGTDFTLTISRLEPEDFAVYYCQQYGSSPWTFGQGTKVEIK
Consider B3, for which the binding result in assay [2] and in assay [3] was “binds” throughout.

B4: Ipi.105 Fab (Fab, V domains shown)
VH: QVQLVESGGGVVQPGRSLRLSCAASGFTFSHYTMHWVRQAPGKGLEWVTFISYDGHNKYYADSVKGRFTISRDNSKNTLYLQMNSLRAEDTAIYYCARTGWLGPFDYWGQGTLVTVSS
VL: EIVLTQSPGTLSLSPGERATLSCRASQEVGESELAWYQQKPGQAPRLLIYGAFSRATGIPDRFSGSGSGTDFTLTISRLEPEDFAVYYCQQYGSSPWTFGQGTKVEIK
As for B4, the binding result in assay [5] is given as “binds”.

The term Kd denotes the constant that tells how readily two partners part at equilibrium. Read a low Kd as tighter binding.
